Among the data in article PMC3020727 (The Journal of Biological Chemistry, 2010) are Ka values, retold here.

No end group written: not given here. *: point of attachment. Biotin = O=C1N[C@H]2[C@H](CS[C@H]2CCCCC(=O)*)N1

For assay [1], the target named is T1, RbAp48 (full length, residues 1-425), purified recombinant (UniProt Q09028 1-425). Briefly: SPR. In general terms: Surface plasmon resonance follows binding to a sensor surface in real time, without labels.
In assay [2] the target is T1, RbAp48 (full length, residues 1-425), …. Briefly: ITC.

T1 sequence (Q09028 whole entry, the tested form may be a part): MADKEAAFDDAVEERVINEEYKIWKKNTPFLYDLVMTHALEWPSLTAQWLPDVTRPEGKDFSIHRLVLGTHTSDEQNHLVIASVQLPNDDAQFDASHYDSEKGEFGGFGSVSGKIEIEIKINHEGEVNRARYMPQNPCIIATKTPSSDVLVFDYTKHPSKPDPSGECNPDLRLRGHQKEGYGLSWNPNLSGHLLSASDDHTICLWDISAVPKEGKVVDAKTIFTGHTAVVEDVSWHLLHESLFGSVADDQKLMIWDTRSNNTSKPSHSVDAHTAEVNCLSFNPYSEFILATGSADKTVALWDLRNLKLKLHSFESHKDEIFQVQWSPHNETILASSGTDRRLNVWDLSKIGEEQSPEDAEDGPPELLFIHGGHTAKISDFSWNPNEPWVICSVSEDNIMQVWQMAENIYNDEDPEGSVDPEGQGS

B1: biotinylated FOG-1-(1-15) peptide (peptide)
peptide: Biotin-MSRRKQSNPRQIKRS
As to B1, in assay [1], the Ka stood at 1.36e+06 M⁻¹.

B2: FOG-1-(1-12) peptide (peptide)
peptide: MSRRKQSNPRQI
B2: in assay [2], the Ka was found to be 1.54e+06 M⁻¹.
